Numbering of substitutions follows the chain as printed. Names and notes keep the numbering of the source.
B1: wt APX: pea cytosolic ascorbate peroxidase (Pisum sativum), wild type, about 28 kD, dimeric (protein, listed as Pisum sativum)
chain: MGKSYPTVSPDYQKAIEKAKRKLRGFIAEKKCAPLILRLAWHSAGTFDSKTKTGGPFGTIKHQAELAHGANNGLDIAVRLLEPIKEQFPIVSYADFYQLAGVVAVEITGGPEVPFHPGREDKPEPPPEGRLPDATKGSDHLRDVFGKAMGLSDQDIVALSGGHTIGAAHKERSGFEGPWTSNPLIFDNSYFTELLTGEKDGLLQLPSDKALLTDSVFRPLVEKYAADEDVFFADYAEAHLKLSELGFAEA
B2: mAPX: double mutant K14D/E112K of pea APX (SEQ ID NO:1), monomeric (protein, listed as Pisum sativum)
chain: B1 chain with K14D, E112K

Key:
[1] = system: HEK cells; test: DAB staining of transfected cells (brightfield); format: cell-based; conditions: for DAB staining activity in mitochondrial matrix: mitochondrial matrix-targeted constructs, HEK cells
Procedure: Next, the activity of wt APX and mAPX was compared in mammalian cells.
(§1) To generate a monomeric APX with improved activity, the two mAPX mutations (K14D/E112K) were added to each of the activity-enhanced mutants. […] The sextuple mutant (K14D, E112K, W41F, D133A, T135F, K136F=mAPX−FFAF), was compared to mAPX+W41F within cells. HEK cells were transfected with constructs targeted to the mitochondrial matrix (Table 3), while COS-7 cells were transfected with constructs fused to the C-terminus of connexin 43 (Table 3). After fixation, the cells were treated with DAB and H2O2 to generate DAB polymer. […] After fixation, cells were stained with anti-Flag (for matrix) or anti-myc (for connexin) antibody to visualize peroxidase expression levels. […] Therefore mAPX+W41F (K14D/E112K/W41F) was selected, denoted as “APEX” (for Enhanced APX), as the optimized reporter for subsequent experiments.
A solution of 4% formaldehyde (freshly depolymerized from paraformaldehyde) with 2% glutaraldehyde in 10 mM phosphate buffered saline (PBS) was added to cells 24 hours after transfection. Cells were treated for 3 min at room temperature, then 30 min on ice. Cells were then washed 5×2 min using ice cold 10 mM PBS. Cells were blocked with 20 mM glycine for 5 min on ice. Cells were then washed 5×2 min with ice-cold 10 mM PBS. Cells were then treated with an ice-cold solution of DAB (0.5 mg/mL) and H2O2 (0.03%) in 10 mM PBS for 20 min. Cells were then washed 5×2 min with ice-cold 10 mM PBS. Cells were treated with 2% OsO4 in ice-cold 10 mM PBS for 30 min, then washed 5×2 min with ice-cold distilled deionized water. Cells were then placed under ice-cold 2% aqueous uranyl acetate for 24 hours.
(§2) Any cell displaying detectable GFP fluorescence was considered transfected. Contact sites between neighboring transfected cells were identified using DIC imaging. Gap junctions were identified as lines of GFP fluorescence unambiguously overlaying with the plasma membrane of two transfected cells based on DIC. DAB stain intensity for APX-NES variants was analyzed using SlideBook. Transfected cells were identified by nuclear YFP fluorescence. In each transfected cell, a representative DAB-stained region was encircled, and its average brightfield intensity was calculated. Background intensity, determined for each field of view by encircling a representative region in the cytosol of an untransfected cell, was subtracted out. The bar graph in FIG. 2c represents mean data from >60 transfected cells.

[2] = system: connexin43 (Cx43); test: Connexin43 fusion localization to gap junctions; format: cell-based, rat; conditions: fused to connexin43
Procedure: Both mAPX and wt APX were fused to connexin43 (Cx43), a protein that is sensitive to oligomeric tags (FIG. 4d) (McKinney, et. al., Nat Meth 6, 131-133 (2009); Lauf, et. al., FEBS letters 498, 11-15 (2001)).
as §1, §2

Molecule	DAB staining activity in mitochondrial matrix [1]	localization of connexin43 fusion / gap junction formation [2]	activity toward DAB (DAB stain) ([1]; expressed throughout the cytosol via NES fusion)
B1	comparably active	abnormal retention inside cells	
B2	comparably active		less active than wt APX

— US9663815B2, “Cytosolically-active peroxidases as reporters for microscopy” (Massachusetts Institute of Technology, priority 2011, dated 2017)
